For the data set the following is noted: whole UniProt chain shown.
The mark [1] stands for this setting: Momordica charantia, pH 7.5, 25 °C, GdnHCl, fluorescence, Tris-HCl 10 mM, NaCl 200 mM.
Where [2] appears, read: Nitratidesulfovibrio vulgaris (strain DSM 19637 / Miyazaki F), pH 7, 20 °C, GdnHCl, CD, phosphate 0.1 M, reversible: yes.
The mark [3] stands for this setting: Oryctolagus cuniculus, pH 7.4, Thermal, DSC, sodium phosphate 50 mM, reversible: yes.
The mark [4] stands for this setting: Niallia circulans, pH 6, Thermal, DSC, HEPES 100 mM, reversible: No.
Setting [5] is: Niallia circulans, pH 8.5, Thermal, DSC, HEPES 100 mM, reversible: No.
Setting [6] is: Niallia circulans, pH 10, Thermal, DSC, CHESS 100 mM, reversible: No.
The mark [7] stands for this setting: Pseudomonas aeruginosa (strain ATCC 15692 / DSM 22644 / CIP 104116 / JCM 14847 / LMG 12228 / 1C / PRS 101 / PAO1), pH 7, Thermal, CD, KH2PO4-NaOH 10 mM, reversible: yes.
Where [8] appears, read: Mus musculus, pH 2, Thermal, DSC, Potassium phosphate 40 mM, reversible: yes.
Setting [9] is: Mus musculus, pH 2.7, Thermal, DSC, Potassium phosphate 40 mM, reversible: yes.
[10] abbreviates: Mus musculus, pH 7, Thermal, DSC, Potassium phosphate 40 mM, reversible: yes.
Setting [11] is: Phaseolus vulgaris, pH 7, 25 °C, GdnHCl, CD, Potassium phosphate 50 mM, Na2SO4 0.5 M, reversible: yes.
Where [12] appears, read: Phaseolus vulgaris, pH 7, 25 °C, GdnHCl, Fluorescence, Potassium phosphate 50 mM, Na2SO4 0.5 M, reversible: yes.

Values joined by “and” are separate entries in the source; they are usually repeats but may differ in a detail not shown here. Equal entries are not always repeated.

The values that follow come from FireProtDB.

As a reminder, the Tm is the temperature at the midpoint of the melting transition.

B1: Ribonuclease MC wild type, P23540 (protein)
chain: FDSFWFVQQWPPAVCSFQKSGSCPGSGLRTFTIHGLWPQGSGTSLTNCPQGSPFDITKISHLQSQLNTLWPNVLRANNQQFWSHEWTKHGTCSESTFNQAAYFKLAVDMRNNYDIIGALRPHAAGPNGRTKSRQAIKGFLKAKFGKFPGLRCRTDPQTKVSYLVQVVACFAQDGSTLIDCTRDTCGANFIF
Consider B1, for which, under setting [1], the “denaturant midpoint (higher = more stable)” value (“denaturant midpoint” below) was found to be 2.57 M and the unfolding free energy worked out at 13.2 kcal/mol. The Tm (Momordica charantia, pH 7.5, Thermal, CD, Tris-HCl 10 mM, NaCl 200 mM) is 64.4 °C.

B2: Cytochrome c-553 wild type, P00120 (protein)
chain: MKRILVVMSICAALAFGVSAAMAADGAALYKSCVGCHGADGSKQAMGVGHAVKGQKADELFKKLKGYADGSYGGEKKAVMTNLVKRYSDEEMKAMADYMSKL
For B2, under setting [2], the denaturant m value was 2.49 kcal/mol/M and 2.75 kcal/mol/M; the “denaturant midpoint” value was 3.65 M and 3.91 M; the unfolding free energy was 9.08 kcal/mol and 10.8 kcal/mol.

B3: Cytochrome b5 wild type, P00169 (protein)
chain: MAAQSDKDVKYYTLEEIKKHNHSKSTWLILHHKVYDLTKFLEEHPGGEEVLREQAGGDATENFEDVGHSTDARELSKTFIIGELHPDDRSKLSKPMETLITTVDSNSSWWTNWVIPAISALIVALMYRLYMADD
With B3, under “Oryctolagus cuniculus, pH 7.4, 25 °C, Thermal, DSC, sodium phosphate 50 mM, reversible: yes”, the unfolding free energy turned out to be 1.7 kcal/mol. Besides, under setting [3], the Tm was 48.5 °C, the “heat capacity change of unfolding” value stood at 1 kcal/mol/K and the “unfolding enthalpy (calorimetric)” value turned out to be 35.7 kcal/mol.

B4: Serine proteinase inhibitor IA-1 wild type, Q7M4T6 (protein)
chain: SAGKFIVIFKNDVSEDKIRETKDEVIAEGGTITNEYNMPGMKGFAGELTPQSLTKFQGLQGDLIDSIEEDGIVTTQ
B4: under “Pleurotus ostreatus, pH 7, Thermal, CD, sodium phosphate 50 mM”, the Tm was 59 °C.

B5: Phosphoserine aminotransferase wild type, Q59196 (protein)
chain: MSKRAYNFNAGPAALPLEVLERAQAEFVDYQHTGMSIMEMSHRGAVYEAVHNEAQARLLALLGNPTGYKVLFIQGGASTQFAMIPMNFLKEGQTANYVMTGSWASKALKEAKLIGDTHVAASSEASNYMTLPKLQEIQLQDNAAYLHLTSNETIEGAQFKAFPDTGSVPLIGDMSSDILSRPFDLNQFGLVYAGAQKNLGPSGVTVVIVREDLVAESPKHLPTMLRYDTYVKNNSLYNTPPSFGIYMVNEVLKWIEERGGLEGVQQANRKKASLIYDAIDQSGGFYRGCVDVDSRSDMNITFRLASEELEKEFVKASEQEGFVGLKGHRSVGGLRASIYNAVPYESCEALVQFMEHFKRSRG
As to B5, the midpoint of thermal melting (Tm) by setting is: under setting [4], 71 °C; under setting [5], 58.4 °C; under setting [6], 58 °C. Moreover, the “unfolding enthalpy (calorimetric)” value was found to be 288 kcal/mol under setting [4], 121 kcal/mol under setting [5] and 124 kcal/mol under setting [6].

B6: Lipase B wild type, P41365 (protein)
chain: MKLLSLTGVAGVLATCVAATPLVKRLPSGSDPAFSQPKSVLDAGLTCQGASPSSVSKPILLVPGTGTTGPQSFDSNWIPLSTQLGYTPCWISPPPFMLNDTQVNTEYMVNAITALYAGSGNNKLPVLTWSQGGLVAQWGLTFFPSIRSKVDRLMAFAPDYKGTVLAGPLDALAVSAPSVWQQTTGSALTTALRNAGGLTQIVPTTNLYSATDEIVQPQVSNSPLDSSYLFNGKNVQAQAVCGPLFVIDHAGSLTSQFSYVVGRSALRSTTGQARSADYGITDCNPLPANDLTPEQKVAAAALLAPAAAAIVAGPKQNCEPDLMPYARPFAVGKRTCSGIVTP
On to B6, for which the Tm is 57.7 °C (Pseudozyma antarctica, pH 7, Thermal, CD, Tris-HCl 50 mM, reversible: No) and 54.8 °C (Pseudozyma antarctica, pH 7, Thermal, Differential Scanning Fluorimetry, HEPES 10mM).

B7: Cytochrome c-551 wild type, P00099 (protein)
chain: MKPYALLSLLATGTLLAQGAWAEDPEVLFKNKGCVACHAIDTKMVGPAYKDVAAKFAGQAGAEAELAQRIKNGSQGVWGPIPMPPNAVSDDEAQTLAKWVLSQK
Regarding B7, under setting [7], the melting temperature (Tm) stood at 56 °C and the “unfolding enthalpy (van 't Hoff)” value worked out at 39.5 kcal/mol.

B8: Ig gamma-1 chain C region secreted form wild type, P01868 (protein)
chain: AKTTPPSVYPLAPGSAAQTNSMVTLGCLVKGYFPEPVTVTWNSGSLSSGVHTFPAVLQSDLYTLSSSVTVPSSPRPSETVTCNVAHPASSTKVDKKIVPRDCGCKPCICTVPEVSSVFIFPPKPKDVLTITLTPKVTCVVVDISKDDPEVQFSWFVDDVEVHTAQTQPREEQFNSTFRSVSELPIMHQDWLNGKEFKCRVNSAAFPAPIEKTISKTKGRPKAPQVYTIPPPKEQMAKDKVSLTCMITDFFPEDITVEWQWNGQPAENYKNTQPIMNTNGSYFVYSKLNVQKSNWEAGNTFTCSVLHEGLHNHHTEKSLSHSPGK
For the protein B8, the midpoint of thermal melting (Tm) runs as follows: under setting [8], 69.3 °C; under setting [9], 69.5 °C; under setting [10], 70.2 °C. For the same protein, the “unfolding enthalpy (calorimetric)” value is, setting by setting: under setting [8], 84 kcal/mol; under setting [9], 86.6 kcal/mol; under setting [10], 174 kcal/mol.

B9: Plastocyanin wild type, P00287 (protein)
chain: LEVLLGSGDGSLVFVPSEFSVPSGEKIVFKNNAGFPHNVVFDEDEIPAGVDAVKISMPEEELLNAPGETYVVTLDTKGTYSFYCSPHQGAGMVGKVTVN
Consider B9, for which, under setting [11], the denaturant m value was found to be 2.7 kcal/mol/M, the “denaturant midpoint” value was 2.1 M and the unfolding free energy came out at 5.8 kcal/mol. In addition, under setting [12], the denaturant m value is 2.5 kcal/mol/M, the “denaturant midpoint” value was 2.1 M and the unfolding free energy was found to be 5.3 kcal/mol.
